Article doi:10.1101/2022.12.06.519310 (bioRxiv, 2022)
Ends that are not written are not given here. * marks the point of attachment. NHCH2CH2(5-OH-indol-3-yl) = Oc1ccc2[nH]cc(CCN*)c2c1

Molecular target: full length recombinant WDR5 (human, UniProt P61964 1-334)
Assay: pull-down

binding result	Binder
binds	ARTKQTARKS (also: biotinylated, position not given here) [biotinylated H3 (1-10) unmodified peptide]
binds	ARTKQ(NHCH2CH2(5-OH-indol-3-yl))TARKS (also: biotinylated, position not given here) [biotinylated H3 (1-10) Q5ser peptide]
